Test results from PMC5903968.

Molecular target: MMP-2 catalytic domain (MMP-2CAT) (UniProt P08253)
Assay: enzyme inhibition assay

Sequence of MMP-2 catalytic domain (MMP-2CAT) (P08253 30-660): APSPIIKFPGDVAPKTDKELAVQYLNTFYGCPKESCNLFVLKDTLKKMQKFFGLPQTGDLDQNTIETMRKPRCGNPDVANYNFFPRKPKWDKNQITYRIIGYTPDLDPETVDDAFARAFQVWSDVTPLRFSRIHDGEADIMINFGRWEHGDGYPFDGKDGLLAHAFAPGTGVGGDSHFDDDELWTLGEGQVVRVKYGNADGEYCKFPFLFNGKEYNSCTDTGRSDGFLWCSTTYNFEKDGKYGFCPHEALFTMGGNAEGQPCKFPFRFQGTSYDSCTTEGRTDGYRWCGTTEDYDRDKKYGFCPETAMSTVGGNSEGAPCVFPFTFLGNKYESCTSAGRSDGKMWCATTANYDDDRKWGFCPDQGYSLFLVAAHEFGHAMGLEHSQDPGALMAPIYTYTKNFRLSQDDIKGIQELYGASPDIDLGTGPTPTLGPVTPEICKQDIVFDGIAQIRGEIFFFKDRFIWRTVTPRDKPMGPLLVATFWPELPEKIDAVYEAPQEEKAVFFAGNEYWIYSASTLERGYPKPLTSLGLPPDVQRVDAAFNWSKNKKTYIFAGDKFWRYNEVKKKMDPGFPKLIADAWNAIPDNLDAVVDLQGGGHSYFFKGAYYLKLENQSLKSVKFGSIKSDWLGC

- Ki: 2.65 nM
Substance: N-terminal domain of TIMP-2 (N-TIMP2), wild type (from UniProt P16035 27-152) (domain or fragment)
